Assay results taken from publication PMC13274938.

Target: Q23-APEX-GT2 trimer (Q23-APEX-GT1-T132R-S158T) (HIV-1 (Q23.17))
Experiment: cryo-EM structure

B1: CH70-Apex2.01 Fab (Fab, V domains shown)
VH: QVQLQESGPGLVKPSETLSLTCAVSGGSISDDYYWTWIRQPPGKGLEWIGYIYGDGGDTKYNPSLKNRVTISIDTSKNHFSLKVNSMTGADTAVYYCAREGRGQFWYDEDYGQFYVPGGLDSWGQGVVVTVSS
VL: DIQMTQTPLSLSVSPGEPASISCRSSQSLLHTDGYDYLDWYLQKPGQSPQLLIYGGSDRPSGVPDRFSGSGSGTDFTLKISRVEAEDVGVYYCMQHKALPRTFGQGTKVEIK
- stoichiometry N (Fab per trimer): 1
